Assay results from the Immune Epitope Database (IEDB).

How the values were obtained:
[1] = biological target: HLA-B*15:01; assay: IEDB peptide-MHC binding, purified MHC/competitive/fluorescence; ≥ and ≤ were set here for values at or beyond the usual limits of such assays; conditions: source organism: Zaire ebolavirus
[2] = biological target: HLA-B*08:01; assay: as above; conditions: source organism: Zaire ebolavirus
[3] = biological target: HLA-B*07:02; assay: as above; conditions: source organism: Zaire ebolavirus
[4] = biological target: HLA-A*02:01; assay: as above; conditions: source organism: Zaire ebolavirus
[5] = biological target: HLA-A*11:01; assay: as above; conditions: source organism: Zaire ebolavirus
[6] = biological target: HLA-A*24:02; assay: as above; conditions: source organism: Zaire ebolavirus
[7] = biological target: HLA-B*57:01; assay: IEDB peptide-MHC binding, purified MHC/direct/fluorescence; filed as Kd, often an IC50 or EC50 that approximates it; ≥ and ≤ were set here for values at or beyond the usual limits of such assays
[8] = biological target: HLA-B*15:01; assay: as above
[9] = biological target: HLA-B*08:01; assay: as above
[10] = biological target: HLA-B*48:01; assay: as above
[11] = biological target: HLA-B*46:01; assay: as above
[12] = biological target: HLA-A*03:01; assay: as above
[13] = biological target: HLA-B*18:01; assay: as above; conditions: source organism: Influenza A virus (A/SW/MN/12883/00(H1N2))
[14] = biological target: HLA-B*07:02; assay: as above
[15] = biological target: HLA-A*02:01; assay: as above
[16] = biological target: HLA-A*11:01; assay: as above; conditions: source organism: Influenza A virus (A/SW/MN/12883/00(H1N2))
[17] = biological target: HLA-A*01:01; assay: as above
[18] = biological target: HLA-B*40:01; assay: as above
[19] = biological target: HLA-A*31:01; assay: as above
[20] = biological target: HLA-A*69:01; assay: as above
[21] = biological target: HLA-B*15:17; assay: as above
[22] = biological target: HLA-A*26:01; assay: as above; conditions: source organism: Influenza A virus(A/swine/Shandong/fNY/2003(H9N2))
[23] = biological target: HLA-B*27:05; assay: as above
[24] = biological target: HLA-B*58:01; assay: as above
[25] = biological target: HLA-B*15:09; assay: IEDB peptide-MHC binding, purified MHC/competitive/fluorescence; filed as Kd, often an IC50 or EC50 that approximates it; ≥ and ≤ were set here for values at or beyond the usual limits of such assays; conditions: source organism: Influenza A virus H3N2
[26] = biological target: HLA-B*51:01; assay: as above; conditions: source organism: Influenza A virus H3N2
[27] = biological target: HLA-A*26:02; assay: IEDB peptide-MHC binding, purified MHC/direct/fluorescence; filed as Kd, often an IC50 or EC50 that approximates it; ≥ and ≤ were set here for values at or beyond the usual limits of such assays; conditions: source organism: Vibrio vulnificus CMCP6
[28] = biological target: HLA-A*26:03; assay: as above; conditions: source organism: Vibrio vulnificus CMCP6
[29] = biological target: HLA-B*08:03; assay: as above; conditions: source organism: Vibrio vulnificus CMCP6
[30] = biological target: HLA-A*68:02; assay: as above; conditions: source organism: Vibrio cholerae
[31] = source organism: Influenza A virus (A/SW/MN/12883/00(H1N2))
[32] = source organism: Vibrio cholerae

TIHHASAPL
IC50 [1]: 14.4 µM
IC50 [2]: ≥ 126 µM
IC50 [3]: 14.7 µM
IC50 [4]: 5.58 µM
IC50 [5]: ≥ 85 µM
IC50 [6]: 46.9 µM

FPNEVGARI
Kd [7, 31]: ≥ 20 µM
Kd [8, 31]: ≥ 20 µM
Kd ([9]; source organism: Influenza A virus(A/swine/Shandong/fNY/2003(H9N2))): 3.05 µM
Kd [10, 31]: ≥ 20 µM
Kd [11, 31]: ≥ 20 µM
Kd [12, 31]: ≥ 20 µM
Kd [13]: ≥ 20 µM
Kd [14, 31]: 0.066 µM
Kd [15, 31]: ≥ 20 µM
Kd [16]: ≥ 20 µM
Kd [17, 31]: ≥ 20 µM
Kd [18, 31]: ≥ 20 µM
Kd [19, 31]: ≥ 20 µM
Kd [20, 31]: 0.0038 µM
Kd [21, 31]: ≥ 20 µM
Kd [22]: ≥ 20 µM
Kd [23, 31]: ≥ 20 µM
Kd [24, 31]: ≥ 20 µM
Kd [25]: 1.13 µM
Kd [26]: 0.352 µM

KGHLPLLDK
Kd [7, 32]: ≥ 20 µM
Kd [8, 32]: ≥ 20 µM
Kd ([9]; source organism: Vibrio vulnificus CMCP6): ≥ 20 µM
Kd [10, 32]: ≥ 20 µM
Kd [11, 32]: ≥ 20 µM
Kd [12, 32]: 0.0555 µM
Kd [27]: ≥ 20 µM
Kd [14, 32]: ≥ 20 µM
Kd [15, 32]: ≥ 20 µM
Kd [28]: ≥ 20 µM
Kd [17, 32]: ≥ 20 µM
Kd [18, 32]: ≥ 20 µM
Kd [19, 32]: 3.98 µM
Kd [29]: ≥ 20 µM
Kd [20, 32]: ≥ 20 µM
Kd [21, 32]: ≥ 20 µM
Kd [30]: ≥ 20 µM
Kd [23, 32]: ≥ 20 µM
Kd [24, 32]: ≥ 20 µM
